We go through 27 molecules from patent US20110059504A1 (GENERAL HOSPITAL, published 2011).

In general, Kd refers to the concentration at which binding is half-saturated.

This test has as its target T1, human myostatin (human, UniProt O14793 267-375, biotinylated in selections and radioactive assays (site not stated)).
T1 construct: Phage ELISA used both unbiotinylated and biotinylated myostatin; also called biotinylated human myostatin; myostatin-biotin
T1 sequence (looked up): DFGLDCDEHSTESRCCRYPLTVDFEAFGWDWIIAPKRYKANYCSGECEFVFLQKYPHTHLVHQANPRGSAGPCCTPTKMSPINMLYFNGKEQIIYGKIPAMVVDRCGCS
Kind of test: radioactive equilibrium binding assay. As to the method: Affinities of selected F13β2 binders to biotinylated myostatin were determined in radioactive equilibrium binding assay (FIGS. 11A and 11B; Table 3). ³⁵S-labeled binder proteins from selection pools and single clones were produced in vitro in a rabbit reticulocyte lysate translation kit (Ambion) and purified on M2-agarose (Sigma). Varying concentrations of biotinylated human myostatin (0-100 nM) or other proteins (protein 1: 100 nM; peptide 1: 250 nM; protein 2: 50 nM) were incubated with a constant concentration of the purified binder protein (1 or 2 nM) at 30° C. for 30 min in buffer B (1×PBS, 0.02% Triton X-100 [pH 7.4]). The receptor-binder complexes were captured by using 25 μl of M280 or Protein A (Dynal) (protein 2) magnetic beads for 10 min at room temperature on a Kingfisher instrument (Thermo Fisher Scientific). The beads were washed five times with 100 μl buffer B, and the amount of ³⁵S-methionine remained on the beads was measured by scintillation counting. Data were analyzed by using the GraphPad Prism software (GraphPad Software, Inc., San Diego, Calif.), fitted with a one-site, nonlinear binding equation. For inhibition assay the binding of ³⁵S-labeled proteins to 20 or 25 nM of biotinylated human myostatin was performed in the presence of varying concentrations of inhibitor (human activin receptor IIB/Fc chimera (R&D Systems, Minneapolis, Minn.) (0-250 nM); protein 1 (100 nM), peptide 1 (250 nM), protein 2 (50 nM); proteins, produced in E. coli, M17, M7, M29, M21, M1-1, WT F13β2 (500 nM)).

B1: 39885-A1 (designed binder)
chain: MTIPEIIIKVRGTQVVGSDMTVIVEFTNPLKETLRNVWVHLDGPGVTRPMKKMFPAIPMNHKVQWEEVVRPWVSGHRKLIASMPQLFHIHVYGELDVQIQRRDYKDDDDK
notes: group M1-A; also called M1-1 (clone ID)
On to B1, for which the B max amounted to 67.3% and the equilibrium dissociation constant (Kd) came to 0.0218 µM.

B2: 39888-A11 (D42N) (designed binder)
chain: MTIPEIIIKVRGTQVVGSDMTVIVEFTNPLKETLRNVWVHLNGPGVTRPMKKMFPAIPMNHKVQWEEVVRPWVSGHRKLIASMPQLFHIHVYGELDVQIQRRDYKDDDDK
notes: group M1-A; D42N; also called M14-1 (clone ID); 39888-All(D42N)
As for B2, the B max came out at 82.4% and the dissociation constant Kd turned out to be 0.0136 µM.

B3: 39885-D8 (K9R) (designed binder)
chain: MTIPEIIIRVRGTQVVGSDMTVIVEFTNPLKETLRNVWVHLDGPGVTRPMKKMFPAIPMDHKVQWEEVVRPWVSGHRKLIASMPQLFHIHVYGELDVQIQRRDYKDDDDK
notes: group M1-A; K9R; also called M5-2 (clone ID)
On to B3, for which the B max amounted to 57.6% and the Kd was 0.0247 µM.

B4: 39885-F7 (designed binder)
chain: MTIPEIIIKVRGTQVVGSDMTVIVEFTNPLKETLRNVWVHLDGPGVTRPMKKMFPTIPMNHKVQWEEVVRPWVSGHRKLIASMPHLFHIHVYGELDVQIQRRDYKDDDDK
notes: group M1-A
For B4, the B max was determined as 62.7% and the Kd came to 0.0241 µM.

B5: 39633-E4 (designed binder)
chain: MTIPEIIIKVRGTQVVGSDMTVIVEFSNPFKETLRNVWVHLDGPGVTRPMKKMFSEIRPDSTVQWEEVVRPWVSGHRKLIASMPSLLHLHVYGELDVQIQRRDYKDDDDK
notes: group M2-A50; also called M019 (clone ID)
B5: the B max is 60% and the dissociation constant Kd worked out at 0.0278 µM.

B6: 39633-A1 (designed binder)
chain: MTIPEIIIKVRGTQVVGSDMTVIVEFTNPFKETLRSVWVHLDGPGVTRPMKKMFREIPPNTTVQWEEVVRPWVSGHRKLIASMPTHHLLHVYGELDVQIQRRDYKDDDDK
notes: group M4-A50
With B6, the B max was 63.9% and the dissociation constant (Kd) was found to be 0.0255 µM.

B7: 39973-C10 (designed binder)
chain: MTIPEIIIKVRGTQVVGSDMTVIVEFTNPLKETLRNVWVHLDGPGVTRPMKKMFPTISRFKRVQWEEVVRPWVSGHRKLIASMPQLQHLHVYGELDVQIQRRDYKDDDDK
notes: group M1-A
As to B7, the B max stood at 72% and the equilibrium dissociation constant (Kd) worked out at 0.0228 µM.

B8: 39885-B5 (F26V) (designed binder)
chain: MTIPEIIIKVRGTQVVGSDMTVIVEVTNPLKETLRNVWVHLDGPGVTRPMKKMFPAIPMNHKVQWEEVVRPWVSGHRKLIASMPQLFHIHVYGELDVQIQRRDYKDDDDK
notes: group M1-A; F26V; also called M2-1 (clone ID)
B8: the B max stood at 72.2% and the dissociation constant (Kd) was 0.0251 µM.

B9: 39633-D2 (designed binder)
chain: MTIPEIIIKVRGTQVVGSDMTVIVEFTNLMKETLRNVWVHLDGPGVTRPMKKMFSEIRPNSTVQWEEVVRPWVSGHRKLIASMPSLLHLHVYGELDVQIQRRDYKDDDDK
notes: group M2-A50
Take B9: the B max is 6.74% and the dissociation constant (Kd) is 0.0112 µM.

B10: 39885-F10 (S82C) (designed binder)
chain: MTIPEIIIKVRGTQVVGSDMTVIVEFTNPLKETLRNVWVHLDGPGVTRPMKKMFPAIPMNHKVQWEEVVRPWVSGHRKLIACMPQLFHIHVYGELDVQIQRRDYKDDDDK
notes: group M1-A; S82C
As for B10, the B max came out at 73.7% and the dissociation constant (Kd) came to 0.0154 µM.

B11: 39888-B7 (designed binder)
chain: MTIPEIIIKVRGTQVVGSDMTVIVEFTNPLKETLRNVWVHLDGPGVTRPMKKMFPAIPMNHKVQWEEVVRPWVSGHRKLIASMNSSSNQHVYGELDVQIQRRDYKDDDDK
notes: group M3-A
On to B11, for which the B max turned out to be 1.19% and the Kd came out at 0.00709 µM.

B12: 39908-G4 (designed binder)
chain: MTIPEIIIKVRGTQVVGSDMTVIVEFSNPFKETLRNVWVHLDGPGVTRPMKKMFSEIRPNSTVQWEEVVRPWVSGHRKLIASMPSLLHLHVYGELDVQIQRRDYKDDDDK
notes: group M2-A50; also called M7 (clone ID)
Take B12: the B max came out at 49% and the dissociation constant (Kd) came out at 0.0284 µM.

B13: 39885-C1 (designed binder)
chain: MTIPEIIIKVRGTQVVGSDMTVIVEFTNPLKETLRNVWVHLDGPGVTRPMKKMFPAIPMNHKVQWEEVVRPWVSGHRKLIASMLNHFYKHVYGELDVQIQRRDYKDDDDK
notes: group M2-A
For the molecule B13, the B max came to 33.3% and the Kd was found to be 0.14 µM.

B14: 39888-G5 (S82I) (designed binder)
chain: MTIPEIIIKVRGTQVVGSDMTVIVEFTNPLKETLRNVWVHLDGPGVTRPMKKMFPAIPMNHKVQWEEVVRPWVSGHRKLIAIMPQLFHIHVYGELDVQIQRRDYKDDDDK
notes: group M1-A; S82I
As for B14, the B max was determined as 83.1% and the dissociation constant Kd came to 0.00999 µM.

B15: 39885-H9 (designed binder)
chain: MTIPEIIIKVRGTQVVGSDMTVIVEFTNPLKETLRNVWVHLDGPGVTRPMKKMFPAIPMNHKVQWEEVVRPWVSGHRKLIASMINYFYNHVYGELDVQIQRRDYKDDDDK
notes: group M2-A
As for B15, the B max stood at 24.1% and the equilibrium dissociation constant (Kd) turned out to be 0.0141 µM.

B16: 39885-G5 (designed binder)
chain: MTIPEIIIKVRGTQVVGSDMTVIVEFTNPLKETLRNVWVHLDGPGVTRPMKKMFPAIPYLSYVQWEEVVRPWVSGHRKLIASMPQLHHLHVYGELDVQIQRRDYKDDDDK
notes: group M1-A; also called M8-L (clone ID)
On to B16, for which the B max is 59.4% and the dissociation constant (Kd) is 0.0285 µM.

B17: 39908-H10 (designed binder)
chain: MTIPEIIIKVRGTQVVGSDMTVIVEFTNPFKETLRSVWVHLDGPGVTRPMKKMFREIPPKTTVQWEEVVRPWVSGHRKLIASMPSLLHLHVYGELDVQIQRRDYKDDDDK
notes: group M2-A50; also called M4 (clone ID)
Consider B17, for which the B max was determined as 47.3% and the Kd was 0.0297 µM.

B18: 39885-D11 (designed binder)
chain: MTIPEIIIKVRGTQVVGSDMTVIVEFTNPLKETLRNVWVHLDGPGVTRPMKKMFPAIPMNHKVQWEEVVRPWVSGHRKLIASMINHFYKHVYGELDVQIQRRDYKDDDDK
notes: group M2-A
Regarding B18, the B max came to 22.3% and the equilibrium dissociation constant (Kd) came out at 0.041 µM.

B19: 39885-C7 (designed binder)
chain: MTIPEIIIKVRGTQVVGSDMTVIVEFTNPLKETLRNVWVHLDGPGVTRPMKKMFRAIPMNHKVQWEEVVRPWVSGHRKLIASMPQLFHIHVYGELDVQIQRRDYKDDDDK
notes: group M1-A; also called M3-1 (clone ID)
As to B19, the B max came to 68.4% and the Kd was 0.0174 µM.

B20: 39885-C11 (designed binder)
chain: MTIPEIIIKVRGTQVVGSDMTVIVEFTNPLKETLRNVWVHLDGPGVTRPMKKMFPAIPMNHKVQWEEVVRPWVSGHRKLIASMINYFYKHVYGELDVQIQRRDYKDDDDK
notes: group M2-A
In the case of B20, the B max came to 18.8% and the dissociation constant Kd came to 0.0416 µM.

B21: 39885-G8 (designed binder)
chain: MTIPEIIIKVRGTQVVGSDMTVIVEFTNPLKETLRNVWVHLDGPGVTRPMKKMFPTIPMNHKVQWEEVVRPWVSGHRKLIASMPQLFHIHVYGELDVQIQRRDYKDDDDK
notes: group M1-A; also called M10-3 (clone ID)
Consider B21, for which the B max came to 69.2% and the Kd came to 0.0307 µM.

B22: 39633-H6 (M50V) (designed binder)
chain: MTIPEIIIKVRGTQVVGSDMTVIVEFTNPFKETLRSVWVHLDGPGVTRPVKKMFREIPPKTTVQWEEVVRPWVSGHRKLIASMPSLLHLHVYGELDVQIQRRDYKDDDDK
notes: group M2-A50; M50V
In the case of B22, the B max was found to be 61.6% and the Kd was determined as 0.0248 µM.

B23: 39885-F8 (designed binder)
chain: MTIPEIIIKVRGTQVVGSDMTVIVEFTNPLKETLRNVWVHLDGPGVTRPMKKMFPAIPMNHKVQWEEVVRPWVSGHRKLIASMPQLFHLHVYGELDVQIQRRDYKDDDDK
notes: group M1-A; also called M7-L (clone ID)
For the molecule B23, the B max came to 98.6% and the Kd is 0.0281 µM.

B24: 39908-G12 (designed binder)
chain: MTIPEIIIKVRGTQVVGSDMTVIVEFTNPFKETLRSVWVHLDGPGVTRPMKKMFSEIRPNSTVQWEEVVRPWVSGHRKLIASMPSLLHLHVYGELDVQIQRRDYKDDDDK
notes: group M2-A50; also called M10 (clone ID)
Take B24: the B max was 34.1% and the dissociation constant Kd was 0.0256 µM.

B25: 39633-D3 (V39M) (designed binder)
chain: MTIPEIIIKVRGTQVVGSDMTVIVEFSNPFKETLRNVWMHLDGPGVTRPMKKMFSEIRPNSTVQWEEVVRPWVSGHRKLIASMPSLLHLHVYGELDVQIQRRDYKDDDDK
notes: group M2-A50; V39M
Regarding B25, the B max amounted to 65.8% and the dissociation constant Kd was 0.0262 µM.

B26: 39633-C1 (designed binder)
chain: MTIPEIIIKVRGTQVVGSDMTVIVEFTNPFKETLRSVWVHLDGPGVTRPMKKMFREIPPKTTVQWEEVVRPWVSGHRKLIASMRTQYLIHLYGELDVQIQRRDYKDDDDK
notes: group M1-A50; V91L; also called M17 (clone ID)
B26: the B max was determined as 74.8% and the Kd was 0.0399 µM.

B27: 39633-G5 (designed binder)
chain: MTIPEIIIKVRGTQVVGSDMTVIVEFTNPFKETLRSVWVHLDGPGVTRPMKKMFSEIRPNSTVQWEEVVRPWVSGHRKLIASMRTQYLIHLYGELDVQIQRRDYKDDDDK
notes: group M1-A50; V91L
Turning to B27, the B max is 64.1% and the Kd came out at 0.0336 µM.
